# From paper doi:10.1101/509299 (bioRxiv, 2019)
# Target: integrin αIIbβ3 on K562 cells stably expressing recombinant αIIbβ3 (αIIbβ3-K562) (UniProt P08514 32-1039; P05106 27-788)
# Assay: flow cytometry on cells
binder,measurement,value
RGDWPC (homoarginine (Har) at position 2) [Eptifibatide],IC50,73.2 nM
